Assay results as given in patent US20240287484.

Tests used:
Conditions in all cases: qPCR; 3 mM MgCl2, 37 C
[1] = test system: T1, MG153-17 RT (uncultivated organism (metagenomic))
T1 sequence: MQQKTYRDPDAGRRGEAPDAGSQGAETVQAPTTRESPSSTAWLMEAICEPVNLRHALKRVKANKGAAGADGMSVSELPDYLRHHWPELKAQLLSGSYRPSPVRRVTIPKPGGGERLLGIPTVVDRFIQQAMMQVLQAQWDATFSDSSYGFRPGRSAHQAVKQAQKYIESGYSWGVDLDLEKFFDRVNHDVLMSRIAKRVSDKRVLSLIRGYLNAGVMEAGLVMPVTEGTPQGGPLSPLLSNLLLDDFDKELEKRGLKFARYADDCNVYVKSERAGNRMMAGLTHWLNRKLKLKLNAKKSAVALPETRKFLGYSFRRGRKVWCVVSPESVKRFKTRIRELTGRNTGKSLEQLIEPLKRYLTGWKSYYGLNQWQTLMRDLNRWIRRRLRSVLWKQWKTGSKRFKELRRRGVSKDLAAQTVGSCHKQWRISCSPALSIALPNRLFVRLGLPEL

[2] = test system: T2, MG153-50 RT (uncultivated organism (metagenomic))
T2 sequence: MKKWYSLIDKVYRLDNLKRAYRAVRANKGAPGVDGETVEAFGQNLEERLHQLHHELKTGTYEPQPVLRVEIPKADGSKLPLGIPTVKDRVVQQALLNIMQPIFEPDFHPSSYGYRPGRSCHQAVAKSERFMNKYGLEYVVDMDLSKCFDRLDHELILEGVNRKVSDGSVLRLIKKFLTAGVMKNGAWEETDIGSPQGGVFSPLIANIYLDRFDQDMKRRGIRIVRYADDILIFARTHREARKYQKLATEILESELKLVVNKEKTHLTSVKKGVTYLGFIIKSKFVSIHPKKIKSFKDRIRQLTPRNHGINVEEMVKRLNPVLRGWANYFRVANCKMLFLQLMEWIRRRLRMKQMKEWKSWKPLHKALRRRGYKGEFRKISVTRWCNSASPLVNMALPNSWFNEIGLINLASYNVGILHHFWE

[3] = test system: T3, MG153-55 RT (uncultivated organism (metagenomic))
T3 sequence: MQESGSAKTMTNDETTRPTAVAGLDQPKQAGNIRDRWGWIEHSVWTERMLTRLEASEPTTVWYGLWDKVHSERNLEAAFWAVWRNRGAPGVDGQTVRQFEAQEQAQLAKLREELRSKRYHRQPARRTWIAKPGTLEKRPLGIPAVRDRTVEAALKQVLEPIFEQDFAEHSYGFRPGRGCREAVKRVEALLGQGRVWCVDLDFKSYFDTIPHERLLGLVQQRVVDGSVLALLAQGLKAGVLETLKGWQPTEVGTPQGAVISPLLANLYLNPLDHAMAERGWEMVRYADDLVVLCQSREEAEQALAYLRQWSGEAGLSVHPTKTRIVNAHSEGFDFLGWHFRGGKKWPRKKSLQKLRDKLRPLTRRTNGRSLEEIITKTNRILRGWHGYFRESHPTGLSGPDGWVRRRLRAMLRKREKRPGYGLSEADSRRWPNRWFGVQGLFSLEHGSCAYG

[4] = test system: T4, MG165-4 RT (uncultivated organism (metagenomic))
T4 sequence: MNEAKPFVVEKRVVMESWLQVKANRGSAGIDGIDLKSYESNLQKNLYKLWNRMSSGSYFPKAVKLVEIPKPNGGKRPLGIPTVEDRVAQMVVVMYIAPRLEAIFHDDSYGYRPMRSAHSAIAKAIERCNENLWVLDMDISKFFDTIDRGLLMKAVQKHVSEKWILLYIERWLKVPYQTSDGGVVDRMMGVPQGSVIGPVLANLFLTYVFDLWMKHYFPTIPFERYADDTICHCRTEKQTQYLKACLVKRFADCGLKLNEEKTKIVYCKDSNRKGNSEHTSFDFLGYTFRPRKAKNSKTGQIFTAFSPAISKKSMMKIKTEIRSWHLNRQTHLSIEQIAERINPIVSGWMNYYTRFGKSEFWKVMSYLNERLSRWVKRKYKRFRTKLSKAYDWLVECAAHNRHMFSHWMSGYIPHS

[5] = test system: T5, MG165-6 RT (uncultivated organism (metagenomic))
T5 sequence: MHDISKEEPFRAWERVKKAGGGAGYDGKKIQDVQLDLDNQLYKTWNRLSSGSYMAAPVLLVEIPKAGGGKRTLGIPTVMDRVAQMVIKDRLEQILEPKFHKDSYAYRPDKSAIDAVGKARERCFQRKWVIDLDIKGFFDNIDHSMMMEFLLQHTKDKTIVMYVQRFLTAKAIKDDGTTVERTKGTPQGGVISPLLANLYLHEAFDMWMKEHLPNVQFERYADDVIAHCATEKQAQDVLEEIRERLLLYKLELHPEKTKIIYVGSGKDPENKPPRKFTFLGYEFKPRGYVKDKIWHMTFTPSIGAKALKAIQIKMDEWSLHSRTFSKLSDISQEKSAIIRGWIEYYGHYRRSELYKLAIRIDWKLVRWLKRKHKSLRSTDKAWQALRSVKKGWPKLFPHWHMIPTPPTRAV

[6] = test system: T6, MG165-8 RT (uncultivated organism (metagenomic))
T6 sequence: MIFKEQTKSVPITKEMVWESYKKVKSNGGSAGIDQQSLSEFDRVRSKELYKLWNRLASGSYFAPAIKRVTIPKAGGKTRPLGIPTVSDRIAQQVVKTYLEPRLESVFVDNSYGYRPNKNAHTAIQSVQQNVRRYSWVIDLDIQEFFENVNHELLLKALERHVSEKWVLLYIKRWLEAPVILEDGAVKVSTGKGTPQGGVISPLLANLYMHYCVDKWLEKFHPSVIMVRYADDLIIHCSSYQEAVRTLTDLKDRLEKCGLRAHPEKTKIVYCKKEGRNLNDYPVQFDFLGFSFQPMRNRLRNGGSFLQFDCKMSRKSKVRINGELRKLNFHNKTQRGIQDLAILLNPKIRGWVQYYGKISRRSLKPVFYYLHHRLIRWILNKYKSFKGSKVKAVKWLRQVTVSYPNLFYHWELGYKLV

Measured: activity (fold over background)

200 nt RNA template annealed to DNA primer
> 10: all assays above
